Measured values taken from the DeepSol protein solubility set.

Test: soluble on expression in E. coli; label from the status in PepcDB or PDB records
With “MSLEKHKVDFYNIPIVDYLLSIGEPLESVGHNYYQHKHHDSLKINQRKNYFVWNSRSSEKNSRGGVVQYMQIMHNLSLQETLSKLSEDLDGKVLPAIPKKSYPKKFNYKVKEAIVPLETQRYLVAKRKIPNKIVRLFFSYDLISQNENNEVIFKWFKGDKVMGFSKQGTIPLTDEEKEKYHTKRDFFKYVAPTTEADTMWGFNYLSGEPKHIFFFESEIDLMSYYSIFEEELNETGNFWLISINGVAIEKVYSFFRYGIENLNLKETCQSLHVCFDNDIAGKQACNKLQHLEFKNIPFQNDLPKEFKDWNEVLQNKEGHHHHHH” the “soluble on expression in E. coli” value was “soluble”.
With “MRVVVCGGGVIGACAAYFLRRRGIDVTVVERTEVAAAASGKAGGFLARDWCTGTPLDALARRSFALHAQLPEDISGDWGYRPMTAYSGFVASDGDARRDAPSALGWLSDGVVIAQRIGTAETTAIVHPRKFTSAVMNAALAQGAELRPGRVTGITRGTDGMTAGGVEIDGDLVEADAVVIAMGPWSLLAAQWMSLPPVYGQRSPSIVYDTAADAPAEALFLESEEDGSAVSIEVFPRADGSTHITALSDIAPLPLDPAAVTPDRDAIARLQTVSERLSPLFRPERIIAQQACFRPVTQDGLPLIGKVPRSDGLYVATGHNVWGILNAPATGEALAELIAEGATREIDLSPFDPARLTPLDPSLLQARLEHHHHHH” the “soluble on expression in E. coli” value was “not soluble”.
With “MNISLSRVHFPVTTLGPGQRLGLWFQGCSIRCAGCISADTWGPGKHPLPLAQVLDDLQPWLARAEGITLSGGEPFDQPEALLALLRGLRERTGVDILVYSGHSLETLQPLLQQAEGLLDALICDPFEQQQAQTLVLRGSDNQRLIFLTELGRQRLSTYQRPLHHEDRALDVMFDDDGSVWMAGIPRRDDVLRLRDLLHDQGHQLQISAHTSRRRLEHHHHHH” the “soluble on expression in E. coli” value was “not soluble”.
In the case of “MGSDKIHHHHHHMHAVSHLASKDAQSNASPQVALIAEGGGQRGIFTAGVLDAWLDGGFDPFDLFIGTSAGSQNLSSFLARQKGYAKRLIRGLSRHKRFYRLGRGLVGGNVVDLDWYFEQTRQGMFKLDLNAATASLGHRQLLITTTNASDRKGYFLSPSSKSQWRELLKASSALPFLYKQGVKLTPWLNDNACNSDKACNNGAANHGGSHHSAALSEAIDSDFYLDGGLAAPLPVREAYRRGARKIVVIRTVSEDFQAQSAWVHKLKSWICVSGFCPKTIDYLVQHEQAYQDELDFIANPPEDVEIVQIFAAENLQSKLLGSTDADLRHDYHAGMNAGKQFLTQDPMALTQMNVHFQTQVQTNAHTQTHIQALSQIKPFSALSA”, the “soluble on expression in E. coli” value is reported as “not soluble”.
In the case of “MSTPTVITLNDGREIQATDKPSYDEDSGFYEFEQLDGKRTRLNKDQIRTVKELLEHHHHHH”, the “soluble on expression in E. coli” value is reported as “not soluble”.
For “MSPRRSAAEAQATRGRILGRAAEIASEEGLDGITIGRLAEELEMSKSGVHKHFGTKETLQISTLDKAFVDFWHRVVEPALAEPPGLRRLRAVCANSVGYLEEPLLPGGCLLTAALSEYDGRPGRVRDAVAEVWSRWREQLRADLTAAVDKGELPAGFDVEQALFEIVAAGLALNAAMQLQHDRTAADRARRAIERALAQS”, the “soluble on expression in E. coli” value was “soluble”.
For “MKEKIPFYNEKEFHDMVKKTKKGTFSGWYIIDKDNNSVEFSGKFNRQFKLNKPVIPVNTEYVTRKEFNEYKNSNDQRLTKIETTLAAQGEQINKLTQTVEKQGEQINQLVQVVLLHGEQINKLTQTVEKQGEQIKELQIEQKAQGETLKLILQTLQKMSDRLDKMEVKMDKMEVKMDKMEVKMDKMEKRIDKLESKLEHHHHHH”, the “soluble on expression in E. coli” value was “not soluble”.
With “METPSSAKRVTRSQAISAINDSDSDFKVPFSSSNKTEDSSIDQRKEEDRSALIDITNDSPIVGLTMQTPPSGFMVKRKSSRIKITPGSGEALLRGQVKTLLHKVEEGTELIHSIKTRPFIHLVTSPMRLLAPTPANTPQFPNFSDDDVKIKIASPIVAGNLRTSQISEEKEDKRMKKMNVETNQAEFAGKHNRFLYNSEDDEIVEAKEVLHLKGIPTPRGKHFRFATQEE” the “soluble on expression in E. coli” value was “soluble”.
With “GRLDHNVEAAMGDETKYARINANRSVSNDYQDGNGDSVHSSWERWNADLALGWKPTQDSWIELKGGKGNGEAAYAGRTMDGTQFQRESLGLHAEQKNLTDVIKKVEAQVDYSYNDHIMDNYKMRTPPMMPMAMEVTRRTLNARAAITTEWDRLNVISGVDSQRNKHAGNMYMRDANPIPPLDGDLRFESYGAFSEWTYRLNP” the “soluble on expression in E. coli” value was “not soluble”.
In the case of “MSEVKYKRVILKLSGEALAGEKGFGINPPVIKTVAEELKDVYDMGVQIAIVVGGGNMWRGEAGAQMGMERAQADYIGMLATIMNALALQDNLESIGVPTRVQTSIEMRQIAEPYIRRKAMRHLEKRRIVIFAGGTGSPYFSTDTTAALRAAEINADAILMAKNGVDGVYSADPNKDASAVKFDTLTHLDIINKGLQVMDTTASSLSMDNDIPVVVFNLNEPGNIRKVVAGEHIGTTVRGKLEHHHHHH”, the “soluble on expression in E. coli” value is reported as “soluble”.
With “MKVLDLIDKYYPQDNELKHILNVHSRSVADKALWIAGKHPELNLDTVFLEEAAMLHDIGIFLTHAPGIQCFGTEPYICHGYLGAGLVRKEGFPRHALVCERHTGAGLSLKDIMDQKLPVPHREMLPVSMEEQVICFADKFFSKTHLDREKTVEGARKSIAKYGDEGLQRFNNWCKLFL” the “soluble on expression in E. coli” value was “not soluble”.
With “MQPPPRKVKPAQEVKLRFLEQLSILQTWQQREADLLEDIRSYSKQRAAIEREYGQALQKLAGPFLKREGHRSGEMDSRGRTVFGAWRCLLDATVAGGQTRLQASDRYRDLAGGTGRSAKEQVLRKGTENLQRAQAEVLQSVRELSRSRKLYGQRERVWALAQEKAADVQARLNRSDHGIFHSRTSLQKLSTKLSAQSAQYSQQLQAARNEYLLNLVATNAHLDHYYQEELPALLKALVSELSEHLRDPLTSLSHTELEAAEVILEHAHRGEQTTSQVSWEQDLKLFLQEPGVFSPTPPQQFQPAGTDQVCVLEWGAEGVAGKSGLEKEVQRLTSRAARDYKIQNHGHRVLQRLEQRRQQASEREAPSIEQRLQEVRESIRRAQVSQVKGAARLALLQGAGLDVERWLKPAMTQAQDEVEQERRLSEARLSQRDLSPTAEDAELSDFEECEETGELFEEPAPQALATRALPCPAHVVFRYQAGREDELTITEGEWLEVIEEGDADEWVKARNQHGEVGFVPERYLNFPDLSLPESSQDSDNPCGAEPTAFLAQALYSYTGQSAEELSFPEGALIRLLPRAQDGVDDGFWRGEFGGRVGVFPSLLVEELLGPPGPPELSDPEQMLPSPSPPSFSPPAPTSVLDGPPAPVLPGDKALDFPGFLDMMAPRLRPMRPPPPPPAKAPDPGHPDPLT” the “soluble on expression in E. coli” value was “soluble”.
For “MAHAGRTGYDNREIVMKYIHYKLSQRGYEWDAGDDVEENRTEAPEGTESEVVHLTLRQAGDDFSRRYRRDFAEMSSQLHLTPFTARGRFATVVEELFRDGVNWGRIVAFFEFGGVMCVESVNREMSPLVDNIALWMTEYLNRHLHTWIQDNGGWDAFVELYGPSMR”, the “soluble on expression in E. coli” value was “soluble”.
For “QSWYGGFKDTAELVRGDSNECIELTDDQLSYLAVLWAARCAVGFQEMKLTRLAKETRLSHEVVQKITQIFISQGIVSVFEEYGPSGQKDVAWVQLTEHGCGLAKNLERVSSHS”, the “soluble on expression in E. coli” value was “not soluble”.
With “MAGKQITLASLPIGKKARVKSLTLDGTIRRRIMDLGLVSDTIVEALQKSPSGDPTAYHIRGAVIALRSEEASKIMVEVN” the “soluble on expression in E. coli” value was “not soluble”.
With “MEANMPKRKEPGRSLRIKVISMGNAEVGKSCIIKRYCEKRFVSKYLATIGIDYGVTKVHVRDREIKVNIFDMAGHPFFYEVRNEFYKDTQGVILVYDVGQKDSFDALDAWLAEMKQELGPHGNMENIIFVVCANKIDCTKHRCVDESEGRLWAESKGFLYFETSAQTGEGINEMFQTFYISIVDLCENGGKRPTTNSSASFTKEQADAIRRIRNSKDSWDMLGVKPGASRDEVNKAYRKLAVLLHPDKCVAPGSEDAFKAVVNARTALLKNIK” the “soluble on expression in E. coli” value was “soluble”.
In the case of “ARVNAQTGAPDILTSLDEKSVSYDTVMDKYWLSQYVIARETYDWYTLQKDYETVGMLSSPSEGQSYASQFQGDKALDKQYGSNVRTSVTIVSIVPNGKGIGTVRFAKTTKRTNETGDGETTHWIATIGYQYVNPSLMSESARLTNPLGFNVTSYRVDPEMGVVQ”, the “soluble on expression in E. coli” value is reported as “soluble”.
In the case of “MGSDKIHHHHHHMWYKNNSFRFTRRFFMRVRVSAVFEQAGEILCMKYIYGGKEVFALPGGGVDKDIPLQEAIVNEWKEELGIKVDIGDIILIGEAPAGKRHPQTLHVVFEAREIRGTPKVRSDATHSLDVAWVPLEKLSSLPLYPDVGKQLSASFSEEPRRSVAFISNCMERGYW”, the “soluble on expression in E. coli” value is reported as “not soluble”.
In the case of “GSHMLGERLGIPAPRRIEAFDNSNIYGADPVSALVVFLDGKPAKKEYRKYKVKTVAGPNDYETMREVVRRRYTRVLKEGLPLPDLIIIDGGKGHLSAVRDVLENELGLDVPLAGLAKDEKHRTSELLAGDPPDVVPLDRQSQEFYLLQRIQDEVHRFAVMFHRKTRQKTMFHSVLDDIPGVGEKRKKALLNYFGSVKKMKEATVEELQRANIPRAVAEKIYEKLHE”, the “soluble on expression in E. coli” value is reported as “soluble”.
In the case of “MSQPVAFVTGCSSGIGRALADAFQRAGYRVWASARKEDDVRALAEAGFQAVQLDVNDAAALARLAEELGVEAAGLDVLVNNAGYGAMGPLLDGGVEAMRRQFETNVFAVVGVTRALFPLLRRKSGLVVNVGSVSGVLVTPFAGAYCASKAAVHALSDALRLELAPFGVEVLEVQPGAIASNFGASASREMDSVVDERSPWWPLRRQIQARAAASQDNPTSAEDFARQLLAAVQRRPRPPLVRIGNGSRALPALARWLPRGLLERLLKKRFGLDTRL”, the “soluble on expression in E. coli” value is reported as “not soluble”.
